This data set is described as follows: soluble on expression in E. coli; label from the status in PepcDB or PDB records.
As for “MRKRLSAPELRLSLTKGPGNDGASPTQSAPSSPDGSSDLEIDELETPSDSEQLDSGHEFEWEDELPRAEGLGTSETAERLGRGCMWDVTGEDGHHWRVFRMGPREQRVDMTVIEPYKKVLSHGGYHGDGLNAVILFASCYLPRSSIPNYTYVMEHLFRYMVGTLELLVAENYLLVHLSGGTSRAQVPPLSWIRQCYRTLDRRLRKNLRALVVVHATWYVKAFLALLRPFISSKFTRKIRFLDSLGELAQLISLDQVHIPEAVRQLDRDLHGSGGT”, the “soluble on expression in E. coli” value is “not soluble”.

In the case of “FLRDAPKHLNPDGEIRLIISDLAEHLHLRPSDFLDKAFAQAGLRVADMMKTKPKHKKAANPSDPLAFARTRETTFLYRLKKA”, the “soluble on expression in E. coli” value was “not soluble”.

Turning to “MSLSAGDSMPGPKSTFRVGVWEDRNKKCRRTMEDTHAFLYNFVQTPALNDASAKDKPEGDDLVTSDMVESDNGYFAIFDGHAGTFAADWCGKKLHIILEDIIRKNPNALIPEVLDQAFTAADAQLEKLPLKNSGCTAAVAVLRWEDRASNDRSAIKPVKPEEPIEMDKANDGSSNEEATKATNSKGKGSGRQRVLYTANVGDARIILCRGGKALRLSYDHKGSDEVEGKRIAAAGGLILNNRVNGVLAVTRALGDAYMKKLVTGHPYTTETVIQPDSDEFIIIACDGIWDVCSDQEAVDLVRNVNDPISASKQLVDYALNRFSTDNLSCMVVRLDQNKEAAVEEGHHHHHH”, the “soluble on expression in E. coli” value is on record as “soluble”.

On to “MSLEDTTITFWHAMNGVQEEALTKLTKDFMKENPKIKVELQNQSAYPDLQAKINSTLTSPKDLPTITQAYPGWLWNAAQDEMLVDLKPYMDDDTIGWKDAEPIREVLLDGAKIDGKQYGIPFNKSTEMLFYNADLLKEYGVEVPKTLEELKEASKTIYEKSNKEVVGAGFDSLNNYYAIGMKNKGVDFNKDLDLTSKDSQEVVDYYRDGIEAGYFRTAGSDKYLSGPFANKKVAMFVGSIAGAGFVQKDAEAGGYEYGVAPRPEKINLQQGTDIYMFDSATPEQRTAAFEFMKFLATPDSQLYWAQQTGYMPILESVLHSDEYKNSKTTKVPAQLENAVKDLFAIPVEENADSAYNEMRTIMESIFASSNKDTRKLLKDATSQFEQAWNQEGHHHHHH”, for which the “soluble on expression in E. coli” value is “soluble”.

As to “MTEFYSDTIGLPKTDPRLWRLRTDELGRESWEYLTPQQAANDPPSTFTQWLLQDPKFPQPHPERNKHSPDFSAFDACHNGASFFKLLQEPDSGIFPCQYKGPMFMTIGYVAVNYIAGIEIPEHERIELIRYIVNTAHPVDGGWGLHSVDKSTVFGTVLNYVILRLLGLPKDHPVCAKARSTLLRLGGAIGSPHWGKIWLSALNLYKWEGVNPAPPETWLLPYSLPMHPGRWWVHTRGVYIPVSYLSLVKFSCPMTPLLEELRNEIYTKPFDKINFSKNRNTVCGVDLYYPHSTTLNIANSLVVFYEKYLRNRFIYSLSKKKVYDLIKTELQNTDSLCIAPVNQAFCALVTLIEEGVDSEAFQRLQYRFKDALFHGPQGMTIMGTNGVQTWDCAFAIQYFFVAGLAERPEFYNTIVSAYKFLCHAQFDTECVPGSYRDKRKGAWGFSTKTQGYTVADCTAEAIKAIIMVKNSPVFSEVHHMISSERLFEGIDVLLNLQNIGSFEYGSFATYEKIKAPLAMETLNPAEVFGNIMVEYPYVECTDSSVLGLTYFHKYFDYRKEEIRTRIRIAIEFIKKSQLPDGSWYGSWGICFTYAGMFALEALHTVGETYENSSTVRKGCDFLVSKQMKDGGWGESMKSSELHSYVDSEKSLVVQTAWALIALLFAEYPNKEVIDRGIDLLKNRQEESGEWKFESVEGVFNHSCAIEYPSYRFLFPIKALGMYSRAYETHTL”, the “soluble on expression in E. coli” value is recorded as “soluble”.

Consider “NPTEQLLTRFNQAAQGDTGLVDTVHDELSQLVQKQGATPVTLVYLGSSETLQGRDAFMPWNKMKFTERGLATIQKGLDLMANQPMPIQEQQRLQGLPEYQ”, for which the “soluble on expression in E. coli” value is listed as “not soluble”.

Consider “MSGAFNNDGRGISPLIATSWERCNKLMKRETWNVPHQAQGVTFASIYRRKKAMLTLGQAALEDAWEYMAPRECALFILDETACILSRNGDPQTLQQLSALGFNDGTYCAEGIIGTCALSLAAISGQAVKTMADQHFKQVLWNWAFCATPLFDSKGRLTGTIALACPVEQTTAADLPLTLAIAREVGNLLLTDSLLAETNRHLNQLNALLESMDDGVISWDEQGNLQFINAQAARVLRLDATASQGRAITELLTLPAVLQQAIKQAHPLKHVEATFESQHQFIDAVITLKPIIETQGTSFILLLHPVEQMRQLMTSQLGKVSHTFAHMPQDDPQTRRLIHFGRQAARSSFPVLLCGEEGVGKALLSQAIHNESERAAGPYIAVNCELYGDAALAEEFIGGDRTDNENGRLSRLELAHGGTLFLEKIEYLAVELQSALLQVIKQGVITRLDARRLIPIDVKVIATTTADLAMLVEQNRFSRQLYYALHAFEITIPPLRMRRGSIPALVNNKLRSLEKRFSTRLKIDDDALARLVSCAWPGNDFELYSVIENLALSSDNGRIRVSDLPEHLFTEQATDDVSATRLSTSLSFAEVEKEAIINAAQVTGGRIQEMSALLGIGRTTLWRKMKQHGIDAGQFKRRV”, for which the “soluble on expression in E. coli” value was “soluble”.

As for “MKVDVDEKTYIITMANDITKLYEENKRNLHYSITDPLTGAYNRKYLNDRFDIFIGDYIVLIDLDNFKMINDYEGHNVGDKILCDFVSLLNKELINSTSIIRLGGDEFIVIFSSDVDKNYVYSQLEALRENFLKVFSKYKYLSFSYGVDTVKRNLKLTIVELDKKMYKNKEKNKKKFDKNLEHHHHHH”, the “soluble on expression in E. coli” value is “soluble”.

Turning to “DRCYNCGGLDHHAKECKLPPQPKKCHFCQSISHMVASCPLKAQQGPSAQG”, the “soluble on expression in E. coli” value is reported as “soluble”.

On to “MKSNEHDDCQVTNPSTGHLFDLSSLSGRAGFTAAYSEKGLVYMSICGENENCPPGVGACFGQTRISVGKANKRLRYVDQVLQLVYKDGSPCPSKSGLSYKSVISFVCRPEAGPTNRPMLISLDKQTCTLFFSWHTPLACEQATECSVRNGSSIVDLSPLIHRTGGYEAYDESEDDASDTNPDFYINICQPLNPMHAVPCPAGAAVCKVPIDGPPIDIGRVAGPPILNPIANEIYLNFESSTPCLADKHFNYTSLIAFHCKRGVSMGTPKLLRTSECDFVFEWETPVVCPDEVRMDGCTLTDEQLLYSFNLSSLSTSTFKVTRDSRTYSVGVCTFAVGPEQGGCKDGGVCLLSGTKGASFGRLQSMKLDYRHQDEAVVLSYVNGDRCPPETDDGVPCVFPFIFNGKSYEECIIESRAKLWCSTTADYDRDHEWGFCRHSNSYRTSSIIFKCDEDEDIGRPQVFSEVRGCDVTFEWKTKVVCPPKKLKHHHHHH”, for which the “soluble on expression in E. coli” value is reported as “soluble”.

As for “MAHHHHHHMSVVRVSITHSSSGIRVPEKRYELSQTIASIKSNIFTHFATPPEQMQLQLIDDRGVKVESSMADDKQLGYYQCRDDFVIHVVDLRPTQQIANFEDVSQVQKYEITEEAYSKREDNARAFRQLMMARQREEAEKAGNPLPKELDADSYKETAEKIHVDDRCQCQPGDRLGTVRFVGRVASLKPGYWIGVEFDEPVGKGDGSVKGTRVFECQPKYGGFLRPDQVTVGDFPPEEF”, the “soluble on expression in E. coli” value is given as “not soluble”.

For the sequence “MSLNIVTLISWDFKRNNESFQRAIINGYDYWSRILDDHGVEKYVILLTCNRVELYYRGDPFDVQEKGYNIISDDMAINHLFHVAAGLDSMSIGENEVLKQVKQAYEKSSSMGKSDKFLSLIFQRAISVGKLVRSKTGIGKGKVSIPSIVYDIVRKNGGNKILLVGNGMLASEIAPYFSYPQYKVTVAGRNIDHVRAFAEKYEYEYVLINDIDSLIKNNDVIITATSSKTPIVEERSLMPGKLFIDLGNPPNIERGNNVITLDEIYEISKKNEMLREEKINQAEILIENEMKATMNKIKDLMIDDIFSQFYRFASVVQTMEIQKFRKMHPEVNENDLEALAHSIINKILNVPVTTLKAVSRSQGNSDFNRLFESFSSNFNDIVSAALQSYEGLRDTQSLRDRTRQLLQKSEGHHHHHH”, the “soluble on expression in E. coli” value was “soluble”.

For the sequence “MSDWSPMHEAAIHGHQLSLRNLISQGWAVNIITADHVSPLHEACLGGHLSCVKILLKHGAQVNGVTADWHTPLFNACVSGSWDCVNLLLQHGASVQPESDLASPIHEAARRGHVECVNSLIAYGGNIDHKISHLGTPLYLACENQQRACVKKLLESGADVNQGKGQDSPLHAVARTASEELACLLMDFGADTQAKNAEGKRPVELVPPESPLAQLFLEREGPPSLMQLCRLRIRKCFGIQQHHKITKLVLPEDLKQFLLHL”, the “soluble on expression in E. coli” value was “soluble”.

Turning to “EIKQNEQRLNAIVQNLVSGVMLINVDKQVIMTNRTMYQILGETEITGKPFYEVIKSFALSQLIDATFETKTMQQKEIILYFPREMILDASVSPILAENGEITGIILLLHDIT”, the “soluble on expression in E. coli” value is listed as “not soluble”.

With “MAHHHHHHMEDNDWTGHHSGDGDQNEGMMLNRMEAVMDEVEKLRNLNGALTLELQLAEKKLVIRHERIETLKHGLRQECAAKQELQRTLEAERVCHQAQLQDARNDALHWRQLYDDLLNNSHTRSRKHNGRHRNEHRSSTPTLEAALTSREPSSLADSPVAMGHGIIVKPIRGGGQKELN”, the “soluble on expression in E. coli” value is listed as “soluble”.

With “MMKQHLDALKDSKYCPLWHDQDIRPETLPALSADTSCELLIVGGGFTGLWGALQAKERQPDADIILIEKTTISDGASGRNGGFLSSSLAHGETNTDHQFPGEADKLHQLGQQNLKEFIETLEHYNIDARYEKVGETSVATDQASVDALRATYESEKAQGEDVVWFNQEEMQAQVNSPTYLAGLWYRGGQDGVVDPARLCWGLKRVILELGVRIYEETPLTSLKKLGQDKMEVTCSDVKIISDKVLMATNAYRNPIGQARRSIIPVWDYQIATQPLSQEQLDSIGWHKSRHALSNHANMFHYYRFTKDNRITWGGGGAVRYYFNNGIDQSYADIPERFAQLSEEFFETFPQLKGIKFTHRWSGIIATSTRFCVVPGVAYDGRVAWAIGYTGLGVGASRFGARIGIELLGYKPSEILDMQFVKKKPIPWAPEPLRWIGVYLTHKALEKADANGGKRGLWLKLLDMLNLGFTCLEHHHHHH”, the “soluble on expression in E. coli” value is recorded as “not soluble”.

On to “NTDYYGLDYALSFNQVEIEEKRIVIAGSGGIARTVIRYMLDHGAHRVDVLTRNAQNARRNLDIPGIGLHENIDEDYDIYVNCTPLGTLGDGDPFSTVDFRSGRTGIDLVYNPPDTPFLKRMRNAGGRTVSGLDVFIGQGLRTLELVFGIRPDSIFREYAVEALNEIR”, for which the “soluble on expression in E. coli” value is on record as “not soluble”.

Regarding “MGSDKIHHHHHHMMRENLAYLEPPLRIAILSQGPQLYSTKRLVEAAQARGHDVHIINPLKCYMNINMRQPSIHIAGKELPQFDAVIPRIGASITFYGSAVLRQFEMMGVYTINDSVGISRSRDKLRSMQLLSRKGIGLPITGFANKPSDIPDLIDMVGGAPLVVKLLEGTQGIGVVLAETRKAAESVLEAFMGLKANIMVQEYIKEANGADIRCFVLGDKVIAAMKRQAKAGEFRSNLHRGGTATLVKLSPEERTTAIRAAKTMGLSLAGVDLLRSNHGPVVMEVNSSPGLEGIEAATQKDVANAIIEFIEKNANKAKS”, the “soluble on expression in E. coli” value is listed as “not soluble”.

Regarding “MSLLMKGTYCLIINCRGTERRIGSLGTVRFPPGFYVYVGSGFSSLEARIKRHLSSEKRRRWHIDHFLDGAEVECVLYTTDKRRLECAVSEKLHGEKSVRGFGCSDCSCKSHLHHFKNKNDATESVKRAFRELGAEVHEWGIEGHHHHHH”, the “soluble on expression in E. coli” value is “soluble”.

As for “MALASAADFFAQQHPSYGRHIGQLYERAVKNDLSFTHTFVNPQVNRSLGYMEEDGEPIAAKVVRETADGLIIKGARLLATQGGMTDELLVLPAGGALLGDEYMYAFSIPSNAPGLKFVCRPSLAAGALVFDAPLSSRFDEIDAMVVFDEVLVPWDRVFFYKNAWFAKEMEEETHLAIMLLHQVLARRIVKTEFFLGTVELLSEAIQIGGYQHVQEKIGEIAAALEALRGMLLASELHAKPDRRGTMVPDPAPLYAAAFLYPRLYPRFADIIQLLGASGLVCLPTEADFSSPLRPDLDRYLQAATLPAEQRVRLFRFAWDMAMSAFGTRQTLYERFFFGDPARFATTFYHRYDREACAEIVRQFLDSEQR”, the “soluble on expression in E. coli” value is “not soluble”.

The values above are taken from the DeepSol protein solubility set.
